Measurements from patent publication US20240309060A1, “POLYPEPTIDE BAX/NPM INHIBITORS” (TRUSTEES OF BOSTON UNIVERSITY, priority 2023, published 2024).
One block for each binder: values may come before it. Square brackets hold non-standard residues; d marks the D form. βAla = NCCC(=O)O

Tests used:
[1] = biological target: human nucleophosmin 1 (NPM1) (human), P06748; assay: SPR on human NPM1, KD calculated as koff/kon
[2] = biological target: human nucleophosmin 1 (NPM1) (human), P06748; assay: SPR on human NPM1, mean of at least three peptide concentrations below saturation

human nucleophosmin 1 (NPM1) (human), P06748, sequence (P06748 whole entry): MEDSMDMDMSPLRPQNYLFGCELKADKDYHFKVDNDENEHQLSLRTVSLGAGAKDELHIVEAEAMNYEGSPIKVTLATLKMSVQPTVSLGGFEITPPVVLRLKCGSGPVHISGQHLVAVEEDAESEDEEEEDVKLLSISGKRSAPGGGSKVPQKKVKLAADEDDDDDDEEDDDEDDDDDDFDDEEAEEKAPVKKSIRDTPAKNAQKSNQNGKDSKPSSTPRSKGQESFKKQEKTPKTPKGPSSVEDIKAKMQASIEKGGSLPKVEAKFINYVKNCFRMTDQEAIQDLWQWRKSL

Kd [1]: 337 nM
koff [2]: 0.0299 s⁻¹
kon [2]: 88500 M⁻¹ s⁻¹
B1: NPMB1-I-011 (peptide)
peptide: Ac-RREEERREEERREEEK[βAla]TVTIFVAGVLTASLTIWKKMG-OH
SMILES: CC[C@H](C)[C@H](NC(=O)[C@@H](NC(=O)[C@H](CC(C)C)NC(=O)[C@H](CO)NC(=O)[C@H](C)NC(=O)[C@@H](NC(=O)[C@H](CC(C)C)NC(=O)[C@@H](NC(=O)CNC(=O)[C@H](C)NC(=O)[C@@H](NC(=O)[C@H](Cc1ccccc1)NC(=O)[C@@H](NC(=O)[C@@H](NC(=O)[C@@H](NC(=O)[C@@H](NC(=O)CCNC(=O)[C@H](CCCCN)NC(=O)[C@H](CCC(=O)O)NC(=O)[C@H](CCC(=O)O)NC(=O)[C@H](CCC(=O)O)NC(=O)[C@H](CCCNC(=N)N)NC(=O)[C@H](CCCNC(=N)N)NC(=O)[C@H](CCC(=O)O)NC(=O)[C@H](CCC(=O)O)NC(=O)[C@H](CCC(=O)O)NC(=O)[C@H](CCCNC(=N)N)NC(=O)[C@H](CCCNC(=N)N)NC(=O)[C@H](CCC(=O)O)NC(=O)[C@H](CCC(=O)O)NC(=O)[C@H](CCC(=O)O)NC(=O)[C@H](CCCNC(=N)N)NC(=O)[C@H](CCCNC(=N)N)NC(C)=O)[C@@H](C)O)C(C)C)[C@@H](C)O)[C@@H](C)CC)C(C)C)C(C)C)[C@@H](C)O)[C@@H](C)O)C(=O)N[C@@H](Cc1c[nH]c2ccccc12)C(=O)N[C@@H](CCCCN)C(=O)N[C@@H](CCCCN)C(=O)N[C@@H](CCSC)C(=O)NCC(=O)O

Kd [1]: 842 nM
koff [2]: 0.0616 s⁻¹
kon [2]: 73200 M⁻¹ s⁻¹
B2: NPMB1-I-010 (peptide)
peptide: Ac-KKRRRKKRRRKKRRRK[βAla]TVTIFVAGVLTASLTIWKKMG-OH
SMILES: CC[C@H](C)[C@H](NC(=O)[C@@H](NC(=O)[C@H](CC(C)C)NC(=O)[C@H](CO)NC(=O)[C@H](C)NC(=O)[C@@H](NC(=O)[C@H](CC(C)C)NC(=O)[C@@H](NC(=O)CNC(=O)[C@H](C)NC(=O)[C@@H](NC(=O)[C@H](Cc1ccccc1)NC(=O)[C@@H](NC(=O)[C@@H](NC(=O)[C@@H](NC(=O)[C@@H](NC(=O)CCNC(=O)[C@H](CCCCN)NC(=O)[C@H](CCCNC(=N)N)NC(=O)[C@H](CCCNC(=N)N)NC(=O)[C@H](CCCNC(=N)N)NC(=O)[C@H](CCCCN)NC(=O)[C@H](CCCCN)NC(=O)[C@H](CCCNC(=N)N)NC(=O)[C@H](CCCNC(=N)N)NC(=O)[C@H](CCCNC(=N)N)NC(=O)[C@H](CCCCN)NC(=O)[C@H](CCCCN)NC(=O)[C@H](CCCNC(=N)N)NC(=O)[C@H](CCCNC(=N)N)NC(=O)[C@H](CCCNC(=N)N)NC(=O)[C@H](CCCCN)NC(=O)[C@H](CCCCN)NC(C)=O)[C@@H](C)O)C(C)C)[C@@H](C)O)[C@@H](C)CC)C(C)C)C(C)C)[C@@H](C)O)[C@@H](C)O)C(=O)N[C@@H](Cc1c[nH]c2ccccc12)C(=O)N[C@@H](CCCCN)C(=O)N[C@@H](CCCCN)C(=O)N[C@@H](CCSC)C(=O)NCC(=O)O
